From patent CN117368459A (INST MILITARY MEDICINE ACADEMY MILITARY SCIENCES PLA, dated 2024)

Target: 新冠病毒S1-RBD蛋白 (新冠病毒 (SARS-CoV-2), UniProt P0DTC2 319-541)
Test: […] (BLI), […], antibody 118 nM to 1.88 nM, 1:1 model

| Binder | Kd |
| --- | --- |
| Nluc-chC25抗体 (antibody, human IgG1, also called Nluc-chC25重组抗体; Nluc标记重组抗体) light: NIVLTQSPVSLAVSLGQRATISCRASESVDSYGNSFMHWYQQKPGQPPKLLIYIASNLESGVPARFSGGGSRTDFTLTIDPVEADDAATYYCQQNYEDPWTFGGGTKLEIKRADAAPSVFIFPPSDEQLKSGTASVVCLLNNFYPREAKVQWKVDNALQSGNSQESVTEQDSKDSTYSLSSTLTLSKADYEKHKVYACEVTHQGLSSPVTKSFNRGEC heavy: not shown | 0.0151 nM |
| HRP-chC25抗体 (antibody, human IgG1, also called HRP标记重组抗体; HRP-2C5) light: NIVLTQSPVSLAVSLGQRATISCRASESVDSYGNSFMHWYQQKPGQPPKLLIYIASNLESGVPARFSGGGSRTDFTLTIDPVEADDAATYYCQQNYEDPWTFGGGTKLEIKRADAAPSVFIFPPSDEQLKSGTASVVCLLNNFYPREAKVQWKVDNALQSGNSQESVTEQDSKDSTYSLSSTLTLSKADYEKHKVYACEVTHQGLSSPVTKSFNRGEC heavy: not shown | 0.0375 nM |
